“And” between values parts separate entries of the source, which are not always exact repeats. Identical values can stand only once.
Molecular target: human IL-2 (human, UniProt P60568 21-153)
Assay: FACS

EC50: 13.3 nM and 12.2 nM
B1: yeast-displayed 602 scFv (scFv, V domains shown)
VH: EVQLQESGPGLVAPSQSLSITCTVSGFSLTNYDISWIRQPPGKGLEWLGVIWTGGGTNYNSGFMSRLSITKDNSKSQVFLKMNSLQTDDTAIYYCVRQGRTPYWGQGTLVTVSA
VL: DIQVTQSPSSLSVSLGDRVTITCKASKDIYNRLAWYQQKPGNAPRLLISGATSLETGVPSRFSGSGSGKDYTLTITSLQTEDVATYYCQQFWGTPYTFGGGTKLEIK

— article PMC11457862 (2024)
